{"source": "the supplement of paper PMC9170038", "test_system": "MS2 coat protein", "experiment": "apparent KD of MS2 coat protein; designed switch direction (-1 OFF switch, 1 ON switch): -1; higher = weaker reporter binding", "summary_of_the_method": "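Normalised cluster fluorescence was curve-fitted, and each design's median over clusters is its apparent KD. Before this, SNAP-549-labelled MS2 coat protein was titrated from 0.7 or 1.5 nM, doubling to 3 µM, over RNA switches transcribed on Illumina chips by stalled E. coli RNA polymerase. Titrations had no input, 200 uM small-molecule ligand, or an oligonucleotide input, and steps lasted 0.8–1.5 h (lowest) to 10–20 min (highest).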", "key": {"[1]": {"settings": "Eterna round: R95, input ligand: FMN 200 uM"}, "[2]": {"settings": "Eterna round: R95, input ligand: microRNA oligo, concentration not stated"}, "[3]": {"settings": "Eterna round: R95, input ligand: none"}}}
{"sequence": "AAGUAUAGAGGAUAUAGUGAGUACUACAUGAGGAUCACCCAUGUUCUUCAAAGCGUACUUCUAGAAGGCUGAUAAA [EX-5 Malc#16] (puzzle: Exclusion 5)", "values": [{"measurement": "apparent KD of MS2 coat protein", "setting": "[1]", "value": 381, "unit": "nM"}, {"measurement": "apparent KD of MS2 coat protein", "setting": "[2]", "value": 251, "unit": "nM"}, {"measurement": "apparent KD of MS2 coat protein", "setting": "[3]", "value": 208, "unit": "nM"}]}
{"sequence": "AAGUAUAGAGGAUAUAGUGAGUACUACAUGAGGAUCACCCAUGUUCUUCACAGCGUAUUUCUAGAAGGCUGUUAAA [EX-5 Malc#19] (puzzle: Exclusion 5)", "values": [{"measurement": "apparent KD of MS2 coat protein", "setting": "[1]", "value": 29.6, "unit": "nM"}, {"measurement": "apparent KD of MS2 coat protein", "setting": "[2]", "value": 26.5, "unit": "nM"}, {"measurement": "apparent KD of MS2 coat protein", "setting": "[3]", "value": 26.4, "unit": "nM"}]}
{"sequence": "AAGUCAUUAGGAUAUGAAUAGGGAGACAUGAGGAUCACCCAUGUUGAUAGAACGACAUGUUCAGAAGGAGUCGCUG [Eternabot (L1) Solution 45] (Eterna round: R97, puzzle: Exclusion 5)", "values": [{"measurement": "apparent KD of MS2 coat protein", "setting": "input ligand: FMN 200 uM", "value": 33.7, "unit": "nM"}, {"measurement": "apparent KD of MS2 coat protein", "setting": "input ligand: none", "value": 33, "unit": "nM"}]}
{"sequence": "AAGUCGAGCGUGAGGAUAUCGUUCGAACGACCGAACGAGAAGGCACAUGAGGAUCACCCAUGUGAUUCAGCUCA [Brourd's EX4 #47] (Eterna round: R97, puzzle: Brourd's mod of Exclusion 4)", "values": [{"measurement": "apparent KD of MS2 coat protein", "setting": "input ligand: FMN 200 uM", "value": 93.6, "unit": "nM"}, {"measurement": "apparent KD of MS2 coat protein", "setting": "input ligand: none", "value": 19.7, "unit": "nM"}]}
{"sequence": "AAGUGUGCCUAGGAUAUGUUCGGCCAAGGUCAUACAGAAGGAGGCACAUGAGGAUCACCCAUGUAGUGUCCAAC [Orririvebe] (puzzle: Exclusion 6)", "values": [{"measurement": "apparent KD of MS2 coat protein", "setting": "[2]", "value": 88.1, "unit": "nM"}]}
{"sequence": "AAGUUGCGAGGAUAUCGUAAGAUGGACAUGAGGAUCACCCAUGUGGUGCUUUUUUAUUGGCGAGAAGGCGCAUAAA [Zaiseren] (puzzle: Exclusion 5)", "values": [{"measurement": "apparent KD of MS2 coat protein", "setting": "[1]", "value": 134, "unit": "nM"}, {"measurement": "apparent KD of MS2 coat protein", "setting": "[2]", "value": 166, "unit": "nM"}, {"measurement": "apparent KD of MS2 coat protein", "setting": "[3]", "value": 164, "unit": "nM"}]}
{"sequence": "AAUAAAACAUAGGAUAUCGAAUUUAUCAUUUAACGAGAAGGAUGAACAUGAGGAUCACCCAUGUGGUAUCAUGG [Mat - Exclusion 6 - JL Mod - D7] (puzzle: Exclusion 6)", "values": [{"measurement": "apparent KD of MS2 coat protein", "setting": "[1]", "value": 168, "unit": "nM"}, {"measurement": "apparent KD of MS2 coat protein", "setting": "[2]", "value": 244, "unit": "nM"}, {"measurement": "apparent KD of MS2 coat protein", "setting": "[3]", "value": 216, "unit": "nM"}]}
{"sequence": "AAUAAACAUGAGGAUCACCCAUGUGAGGAUAUCGAAAUAAAUAAUAAAAUAAAUAAAACGAGAAGGCACAAUAA [JMF most obvious solution 3] (puzzle: Exclusion 1)", "values": [{"measurement": "apparent KD of MS2 coat protein", "setting": "[1]", "value": 40.4, "unit": "nM"}, {"measurement": "apparent KD of MS2 coat protein", "setting": "[2]", "value": 46.2, "unit": "nM"}, {"measurement": "apparent KD of MS2 coat protein", "setting": "[3]", "value": 47.5, "unit": "nM"}]}
{"sequence": "AAUAAACAUGAGGAUCACCCAUGUGAGGAUAUGCAAAUAAAUAAUAAAAUAAAUAAAAGCAGAAGGCACAAUAA [JMF most obvious solution 1] (puzzle: Exclusion 1)", "values": [{"measurement": "apparent KD of MS2 coat protein", "setting": "[1]", "value": 31.5, "unit": "nM"}, {"measurement": "apparent KD of MS2 coat protein", "setting": "[2]", "value": 35, "unit": "nM"}, {"measurement": "apparent KD of MS2 coat protein", "setting": "[3]", "value": 30.9, "unit": "nM"}]}
{"sequence": "AAUAAACGAGGAUAUACUAAAAUAUGAAUAAAAUAAAUAAAACAUGAGGAUCACCCAUGUAGAAGGCGUAAUAA [JMF's Not so obvious solution 4] (puzzle: Exclusion 2)", "values": [{"measurement": "apparent KD of MS2 coat protein", "setting": "[1]", "value": 21.3, "unit": "nM"}, {"measurement": "apparent KD of MS2 coat protein", "setting": "[2]", "value": 23.4, "unit": "nM"}, {"measurement": "apparent KD of MS2 coat protein", "setting": "[3]", "value": 21.4, "unit": "nM"}]}
{"sequence": "AAUAAAGUAGGAUAUCGGCCAGCGAACAUGAGGAUCACCCAUGUGAUGCCGUGCCGACGCCGAGAAGGGCUUAAAA [Usceisma] (puzzle: Exclusion 5)", "values": [{"measurement": "apparent KD of MS2 coat protein", "setting": "[1]", "value": 13.5, "unit": "nM"}, {"measurement": "apparent KD of MS2 coat protein", "setting": "[2]", "value": 12, "unit": "nM"}, {"measurement": "apparent KD of MS2 coat protein", "setting": "[3]", "value": 12.1, "unit": "nM"}]}
{"sequence": "AAUAAAUAAGCAGGAUCCUACAUGAGGAUCACCCAUGUGCUCGUCUUAUAAAGUACUAUCACGAAAGUGAUAGUACA [Mat - Sensor v3 - turn-off var 1 - Eli Mod - D75] (puzzle: Sensor v3, turn-off variant 1)", "values": [{"measurement": "apparent KD of MS2 coat protein", "setting": "[1]", "value": 115, "unit": "nM"}, {"measurement": "apparent KD of MS2 coat protein", "setting": "[2]", "value": 103, "unit": "nM"}, {"measurement": "apparent KD of MS2 coat protein", "setting": "[3]", "value": 145, "unit": "nM"}]}
{"sequence": "AAUAACAAGCAAGAUCCUAACAUGAGGAUCACCCAUGUGCUCGUCUUGUAAAGUACUAUCACGAAAGUGAUAGUACA [Sensor 3, v1 - 48] (Eterna round: R96, puzzle: Sensor v3, turn-off variant 1)", "values": [{"measurement": "apparent KD of MS2 coat protein", "setting": "input ligand: FMN 200 uM", "value": 22.3, "unit": "nM"}, {"measurement": "apparent KD of MS2 coat protein", "setting": "input ligand: microRNA oligo, concentration not stated", "value": 437, "unit": "nM"}, {"measurement": "apparent KD of MS2 coat protein", "setting": "input ligand: none", "value": 25.5, "unit": "nM"}]}
{"sequence": "AAUAACAAGCAAGAUCCUAACAUGAGGAUCACCCAUGUGCUCGUCUUGUAAAGUACUAUCACGAAAGUGAUAGUACA [Sensor 3, v1 - 48] (puzzle: Sensor v3, turn-off variant 1)", "values": [{"measurement": "apparent KD of MS2 coat protein", "setting": "[1]", "value": 20, "unit": "nM"}, {"measurement": "apparent KD of MS2 coat protein", "setting": "[2]", "value": 723, "unit": "nM"}, {"measurement": "apparent KD of MS2 coat protein", "setting": "[3]", "value": 22.1, "unit": "nM"}]}
{"sequence": "AAUAACAAGUGAGAUCCUAACAUGAGGAUCACCCAUGUGCUCGUCUUAUAAAGUACUAUCACGAAAGUGAUAGUACA [Sensor 3, v1 - 54] (puzzle: Sensor v3, turn-off variant 1)", "values": [{"measurement": "apparent KD of MS2 coat protein", "setting": "[1]", "value": 117, "unit": "nM"}, {"measurement": "apparent KD of MS2 coat protein", "setting": "[2]", "value": 7.29, "unit": "nM"}, {"measurement": "apparent KD of MS2 coat protein", "setting": "[3]", "value": 70.6, "unit": "nM"}]}
